Drawing on patent US20240383994A1, this text covers IC50 and IC50; NF-κB luciferase reporter (RLU), 293T-hCD40-NFκB cells stimulated with human CD40L protein 10 µg/mL for ten molecules.

Residue numbers refer to the chain shown, from its start.

First the molecules themselves.
B1: Chi-A01 (antibody, human IgG4 S228P, kappa, V domains shown)
VH: QVQLKESGPGLVAPSQSLSITCTVSGFSLPTSGVHWVRQPPGKGLEWLGVIWAGGDTNYNSALMSRLSISKDNSKSQVFLKMNSLQKDDTAIYYCLGHGHFDVWGAGTTVTVSS
VL: DVVMTQTPLSLPVSLGDQASISCRSSQSLVHSSGNTYLQWYLQKPGQSPGLLIYKVSNRFSGVPDRFSGSGSGTDFTLKISRVEAEDLGVYFCSQTTHVPWTFGGGTKLEIKR
B2: hzA01-3.1 (antibody, human IgG4 S228P, kappa, V domains shown)
VH: QVQLQESGPGLVKPSETLSLTCTVSGFSLPTSGVHWIRQPPGKGLEWIGVIWAGGDTNYNPSLKSRVTISKDNSKNQVFLKLSSVTAADTAVYYCLGHGHFDVWGQGTLVTVSS
VL: B1 VL with T7S, S14T, D17Q, Q18P, K44R, L88V, F92Y, G105Q
B3: hzA01-3.3 (antibody, human IgG4 S228P, kappa, V domains shown)
VH: B2 VH with Q5K, P61S, S62A, N76S
VL: B1 VL with T7S, S14T, D17Q, Q18P, K44R, L88V, F92Y, G105Q
B4: hzA01-3.4 (antibody, human IgG4 S228P, kappa, V domains shown)
VH: B2 VH with Q5K, P61S, S62A, K64M, N76S, L82M
VL: B1 VL with T7S, S14T, D17Q, Q18P, K44R, L88V, F92Y, G105Q
B5: A01 (antibody, V domains shown)
VH: B1 VH
VL: DVVMTQTPLSLPVSLGDQASISCRSSQSLVHSSGNTYLQWYLQKPGQSPGLLIYKVSNRFSGVPDRFSGSGSGTDFTLKISRVEAEDLGVYFCSQTTHVPWTFGGGTKLEIK
B6: A02 (antibody, V domains shown)
VH: B1 VH with P30T, T31S, N58S, K87T, I92M, F101L
VL: B5 VL with Q39H
B7: A03 (antibody, V domains shown)
VH: DVQLQESGPDRVKPSQSLSLTCTVTGYSITSDYSWHWIRQFPGNKLEWMGYIYSSGHTYYNPSLKSRISFTRDTSKNQFFLQLNSVTTEDTATYYCAIYYYGRSYFDNWGRGTTLTVSS
VL: QIVLTQSPAIMSASPGEKVTLTCSASSSVNYMHWYQQKSGTSPKRWIYDTSKLASGVPARFSGSGSGTSYSLTISSMEAEDAATYYCQQWSSNPLTFGAGTKLELK
B8: B03 (antibody, V domains shown)
VH: EVKLVESGGGLVQPGGSLRLSCATSGFTFSDFYMEWVRQPPGKRLEWIAASRDKANDYTTEYSPSVQGRFIVSRDSSQSILYLQMNALRTEDTAIYYCARDVGRSYALDYWGQGTSVTVSS
VL: B7 VL with I2V, L21M, N30T, D49V, A59T, S92R, N93K, L95P
B9: B01 (antibody, V domains shown)
VH: QIQLVQSGPELKKPGETVKISCKASGYTFTNYGMNWVKQAPGKGLKWMGWINPYTGEPTYADDFKGRFAFSVETSASTAYLQINNLKNEDTATYFCARKPPFDYWGQGTTLTVSS
VL: DIVMTQAAPSVPVTPGESVSISCRSSKSLLHSNGNTYLYWFLQRPGQSPQILIYRVSNLASGVPDRFSGSGSGTAFTLRISRVEAEDVGVYYCMQHVEYPFTFGSGTKLEIK
B10: B02 (antibody, V domains shown)
VH: EVQLQQSGPELVKPGASVKMSCKASGYTFTSYVMYWVKQKPGQGLEWIGYVNPYNDGTNYNEKFKGKATLTSDKSSSTAYMELSSLTSEDSAVYYCARGAMDYWGQGTSVTVSS
VL: B9 VL with N33Q

For one assay, the target named is cynoCD40-mFc (monkey (cyno)). Description: flow cytometry, blocking of cynoCD40-mFc (2 µg/mL) binding to CHO-K1-cynoCD40L cells.
cynoCD40-mFc (monkey (cyno)), sequence (chain, as listed by the source limits assumed, form in doubt): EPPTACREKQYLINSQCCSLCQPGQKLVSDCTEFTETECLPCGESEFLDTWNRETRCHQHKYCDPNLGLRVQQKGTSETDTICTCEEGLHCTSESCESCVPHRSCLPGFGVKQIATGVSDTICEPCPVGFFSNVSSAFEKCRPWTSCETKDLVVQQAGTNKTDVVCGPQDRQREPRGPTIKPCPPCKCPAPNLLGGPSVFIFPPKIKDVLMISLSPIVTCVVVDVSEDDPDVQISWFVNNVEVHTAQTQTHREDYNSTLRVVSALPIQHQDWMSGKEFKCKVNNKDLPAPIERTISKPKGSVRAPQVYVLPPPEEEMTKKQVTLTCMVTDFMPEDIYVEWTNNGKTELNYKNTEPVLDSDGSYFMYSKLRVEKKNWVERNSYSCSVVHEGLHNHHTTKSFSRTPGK
Regarding B1, the 50% inhibitory concentration (IC50) (usually the midpoint of a concentration-inhibition curve) worked out at 25.2 nM.

In the case of B2, the concentration for half-maximal inhibition (IC50) turned out to be 25.5 nM.

B3 returned an IC50 of 35.8 nM.

As to B4, the IC50 was found to be 22.9 nM.

For the next assay, the target named is human CD40 (hCD40), full length, on cells (human) (UniProt P25942).
human CD40 (hCD40), full length, on cells (human), sequence (P25942 21-277 limits assumed): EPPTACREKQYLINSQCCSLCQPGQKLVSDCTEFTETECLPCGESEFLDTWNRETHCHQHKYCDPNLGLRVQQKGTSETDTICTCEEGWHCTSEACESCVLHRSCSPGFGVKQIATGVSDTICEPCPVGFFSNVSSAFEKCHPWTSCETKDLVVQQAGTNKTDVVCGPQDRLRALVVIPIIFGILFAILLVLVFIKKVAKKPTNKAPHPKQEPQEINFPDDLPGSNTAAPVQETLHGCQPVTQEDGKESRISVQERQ
Assay: not given
B5 displayed an IC50; NF-κB luciferase reporter (RLU), 293T-hCD40-NFκB cells stimulated with human CD40L protein 10 µg/mL of 2.22 ng/mL.

As to B6, the IC50; NF-κB luciferase reporter (RLU), 293T-hCD40-NFκB cells stimulated with human CD40L protein 10 µg/mL was determined as 2.79 ng/mL.

The molecule B7 had an IC50; NF-κB luciferase reporter (RLU), 293T-hCD40-NFκB cells stimulated with human CD40L protein 10 µg/mL of 287 ng/mL.

B8: the IC50; NF-κB luciferase reporter (RLU), 293T-hCD40-NFκB cells stimulated with human CD40L protein 10 µg/mL worked out at 16.2 ng/mL.

B9 yielded an IC50; NF-κB luciferase reporter (RLU), 293T-hCD40-NFκB cells stimulated with human CD40L protein 10 µg/mL of 8.16 ng/mL.

Turning to B10, the IC50; NF-κB luciferase reporter (RLU), 293T-hCD40-NFκB cells stimulated with human CD40L protein 10 µg/mL came out at 5.21 ng/mL.
